From paper PMC8091583 (FEBS Open Bio, 2021)
Changes are numbered by the printed parent chain. Names may count otherwise. One block for each molecule: values may come before it.

Key:
PYL3 with HAB1 [1] = target: T1, PYL3 with HAB1 (Arabidopsis thaliana, UniProt Q9SSM7); assay: HAB1 phosphatase assay (Promega V2460), phosphopeptide substrate; type: biochemical; conditions: HAB1 0.5 μM, PYL3 1 μM, ABA 5 μM, pH 7.5, 30 °C; ABA promotes inhibition of HAB1 by PYL3
T1 construct: 6xHis-tagged PYL3 plus HAB1 (169-511), GST tag removed by TEV protease; both from E. coli; with Protein phosphatase 2C 16
T1 sequence (Q9SSM7 1-209): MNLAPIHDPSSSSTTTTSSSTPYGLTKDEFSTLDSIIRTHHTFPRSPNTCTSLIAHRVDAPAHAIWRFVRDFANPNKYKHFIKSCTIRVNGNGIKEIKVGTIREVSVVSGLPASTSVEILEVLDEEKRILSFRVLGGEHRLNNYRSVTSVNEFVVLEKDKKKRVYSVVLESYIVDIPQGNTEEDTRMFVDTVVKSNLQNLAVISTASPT
T1 sequence (Q9CAJ0 169-511 partner): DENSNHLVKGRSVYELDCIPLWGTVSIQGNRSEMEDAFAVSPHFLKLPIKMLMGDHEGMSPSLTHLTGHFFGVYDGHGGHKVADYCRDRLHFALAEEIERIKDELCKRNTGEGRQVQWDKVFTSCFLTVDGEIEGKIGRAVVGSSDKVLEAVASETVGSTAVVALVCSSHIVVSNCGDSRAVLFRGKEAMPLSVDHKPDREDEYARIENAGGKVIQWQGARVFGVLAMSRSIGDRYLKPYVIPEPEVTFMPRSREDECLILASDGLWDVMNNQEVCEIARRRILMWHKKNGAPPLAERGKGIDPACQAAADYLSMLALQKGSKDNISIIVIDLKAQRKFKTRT

PYL3 with HAB1 [2] = target: T2, PYL3 with HAB1 (Arabidopsis thaliana, UniProt Q9SSM7, F81A); assay: as above; type: biochemical; conditions: read-out: % inhibition of HAB1 with 5 μM ABA
T2 construct: 6xHis-tagged PYL3 plus HAB1 (169-511), GST tag removed by TEV protease; both from E. coli; with Protein phosphatase 2C 16
T2 sequence (Q9SSM7 1-209 F81A): T1 sequence (Q9SSM7 1-209) with F81A
T2 sequence (Q9CAJ0 169-511 partner): T1 sequence (Q9CAJ0 169-511 partner)

PYL3 with HAB1 [3] = target: T3, PYL3 with HAB1 (Arabidopsis thaliana, UniProt Q9SSM7, F188A); assay: as above; type: biochemical; conditions: read-out: % inhibition of HAB1 with 5 μM ABA
T3 construct: 6xHis-tagged PYL3 plus HAB1 (169-511), GST tag removed by TEV protease; both from E. coli; with Protein phosphatase 2C 16
T3 sequence (Q9SSM7 1-209 F188A): T1 sequence (Q9SSM7 1-209) with F188A
T3 sequence (Q9CAJ0 169-511 partner): T1 sequence (Q9CAJ0 169-511 partner)

[4] = target: AD-HAB1 (169-511) (Arabidopsis thaliana) (UniProt Q9CAJ0)
AD-HAB1 (169-511) (Arabidopsis thaliana), sequence (Q9CAJ0 whole entry): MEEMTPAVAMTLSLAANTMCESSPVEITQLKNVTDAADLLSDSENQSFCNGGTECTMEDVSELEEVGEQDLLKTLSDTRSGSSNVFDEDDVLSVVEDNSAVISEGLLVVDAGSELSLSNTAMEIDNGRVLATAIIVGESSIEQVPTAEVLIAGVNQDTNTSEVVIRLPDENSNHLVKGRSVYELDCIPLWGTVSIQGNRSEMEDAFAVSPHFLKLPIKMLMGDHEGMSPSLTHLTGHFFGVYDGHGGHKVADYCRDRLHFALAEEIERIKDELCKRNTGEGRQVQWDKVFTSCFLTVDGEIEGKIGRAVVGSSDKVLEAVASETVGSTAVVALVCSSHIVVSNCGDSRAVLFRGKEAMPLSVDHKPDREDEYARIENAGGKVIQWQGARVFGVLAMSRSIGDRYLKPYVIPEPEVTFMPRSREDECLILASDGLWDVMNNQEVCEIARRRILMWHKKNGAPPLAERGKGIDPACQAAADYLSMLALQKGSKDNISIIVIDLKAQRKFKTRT

[5] = target: AD-HAB1 (169-511) (Arabidopsis thaliana) (UniProt Q9CAJ0); remark: listed apart in the source
[6] = target: AD-HAB1 (169-511) (Arabidopsis thaliana) (UniProt Q9CAJ0); remark: listed apart in the source
[7] = target: the molecule itself; assay: cross-linking; EGS cross-linking gel assay: 20 μg 6x His-tagged PYL3 WT or mutant in PBS (pH 7.5, 150 mM NaCl), 100 μL, increasing EGS, 10 min at room temperature, stopped with Tris-glycine; 10% SDS/PAGE, Coomassie; self-association (dimer)

Molecule: CC1=CC(=O)CC(C)(C)[C@@]1(O)/C=C/C(C)=C\C(=O)O [ABA]
HAB1 phosphatase assay (Promega V2460), phosphopeptide substrate (PYL3 with HAB1 [1]): PYL3 could almost completely inhibit the activity of HAB1 in the presence of ABA
inhibition at 5 µM (PYL3 with HAB1 [2]): ~70%
inhibition at 5 µM (PYL3 with HAB1 [3]): ~70%

inhibition of HAB1 (0.5 μM) phosphatase activity by 1 μM PYL3 mutant, without ABA [4]: 25%
inhibition of HAB1 phosphatase activity by the PYL3 mutant, without ABA (as retold in the discussion, Fig. 3) [5]: 20%
B1: PYL3 V108K V107L (receptor)
chain: T1 sequence (Q9SSM7 1-209) with V107L, V108K

inhibition of HAB1 (0.5 μM) phosphatase activity by 1 μM PYL3 mutant, without ABA [4]: 98%
B2: BD-PYL3 V108K V107F V192F L111F (receptor)
chain: T1 sequence (Q9SSM7 1-209) with V107F, V108K, L111F, V192F

inhibition of HAB1 (0.5 μM) phosphatase activity by 1 μM PYL3 mutant, without ABA [4]: 50%
B3: PYL3 V108K V107L V192L (receptor)
chain: T1 sequence (Q9SSM7 1-209) with V107L, V108K, V192L

inhibition of HAB1 (0.5 μM) phosphatase activity by 1 μM PYL3 mutant, without ABA [4]: 92.5%
B4: BD-PYL3 V108K V107L V192F L111F (receptor)
chain: T1 sequence (Q9SSM7 1-209) with V107L, V108K, L111F, V192F

inhibition of HAB1 (0.5 μM) phosphatase activity by 1 μM PYL3 mutant, with ABA (5 μM) [6]: 70%
B5: PYL3 F188A (receptor)
chain: T1 sequence (Q9SSM7 1-209) with F188A

inhibition of HAB1 (0.5 μM) phosphatase activity by 1 μM PYL3 mutant, without ABA [4]: 80%
B6: PYL3 V108K V107L L111F (receptor)
chain: T1 sequence (Q9SSM7 1-209) with V107L, V108K, L111F

B7: PYL3 V108A (6x His-tagged) (receptor, Arabidopsis thaliana, UniProt Q9SSM7 1-209, looked up)
chain: T1 sequence (Q9SSM7 1-209) with V108A
notes: PYL3, Arabidopsis thaliana, in pET-28a-tev, site-directed mutant; Same limits as m1; source: E. coli BL21(Rosseta), purified (Ni-charged resin, SEC Superdex-200)
stoichiometry N [7]: 2

inhibition of HAB1 (0.5 μM) phosphatase activity by 1 μM PYL3 mutant, with ABA (5 μM) [6]: 70%
B8: PYL3 F81A (receptor)
chain: T1 sequence (Q9SSM7 1-209) with F81A

B9: wild-type PYL3 (6x His-tagged) (receptor, Arabidopsis thaliana, UniProt Q9SSM7 1-209, looked up)
chain: T1 sequence (Q9SSM7 1-209)
notes: PYL3 (pyrabactin resistance/Pyr1-like 3), Arabidopsis thaliana, subcloned from a cDNA library into pET-28a-tev; also called PYL3 WT; source: E. coli BL21(Rosseta), purified (Ni-charged resin, SEC Superdex-200)
stoichiometry N [7]: 2

inhibition of HAB1 (0.5 μM) phosphatase activity by 1 μM PYL3 mutant, without ABA [4]: 90%
B10: BD-PYL3 V108K V107F V192F (receptor)
chain: T1 sequence (Q9SSM7 1-209) with V107F, V108K, V192F

inhibition of HAB1 (0.5 μM) phosphatase activity by 1 μM PYL3 mutant, without ABA [4]: 85%
B11: PYL3 V108K V107L V192L L111F (receptor)
chain: T1 sequence (Q9SSM7 1-209) with V107L, V108K, L111F, V192L

inhibition of HAB1 (0.5 μM) phosphatase activity by 1 μM PYL3 mutant, without ABA [4]: 87.5%
B12: BD-PYL3 V108K V107L V192F (receptor)
chain: T1 sequence (Q9SSM7 1-209) with V107L, V108K, V192F

inhibition of HAB1 (0.5 μM) phosphatase activity by 1 μM PYL3 mutant, without ABA [4]: 65%
inhibition of HAB1 phosphatase activity by the PYL3 mutant, without ABA (as retold in the discussion, Fig. 3) [5]: 40%
B13: PYL3 V108K V107F (receptor)
chain: T1 sequence (Q9SSM7 1-209) with V107F, V108K
